In patent publication US20250122304A1, “PRE-TARGETING” (Precirix N.V., priority 2022, published 2025) one finds Kd, koff and kon data, which are given here for six molecules.

T1: human fibroblast activation protein (FAP) (human, UniProt Q12884 26-760)
T1 construct: also called human FAP; hFAP
T1 sequence: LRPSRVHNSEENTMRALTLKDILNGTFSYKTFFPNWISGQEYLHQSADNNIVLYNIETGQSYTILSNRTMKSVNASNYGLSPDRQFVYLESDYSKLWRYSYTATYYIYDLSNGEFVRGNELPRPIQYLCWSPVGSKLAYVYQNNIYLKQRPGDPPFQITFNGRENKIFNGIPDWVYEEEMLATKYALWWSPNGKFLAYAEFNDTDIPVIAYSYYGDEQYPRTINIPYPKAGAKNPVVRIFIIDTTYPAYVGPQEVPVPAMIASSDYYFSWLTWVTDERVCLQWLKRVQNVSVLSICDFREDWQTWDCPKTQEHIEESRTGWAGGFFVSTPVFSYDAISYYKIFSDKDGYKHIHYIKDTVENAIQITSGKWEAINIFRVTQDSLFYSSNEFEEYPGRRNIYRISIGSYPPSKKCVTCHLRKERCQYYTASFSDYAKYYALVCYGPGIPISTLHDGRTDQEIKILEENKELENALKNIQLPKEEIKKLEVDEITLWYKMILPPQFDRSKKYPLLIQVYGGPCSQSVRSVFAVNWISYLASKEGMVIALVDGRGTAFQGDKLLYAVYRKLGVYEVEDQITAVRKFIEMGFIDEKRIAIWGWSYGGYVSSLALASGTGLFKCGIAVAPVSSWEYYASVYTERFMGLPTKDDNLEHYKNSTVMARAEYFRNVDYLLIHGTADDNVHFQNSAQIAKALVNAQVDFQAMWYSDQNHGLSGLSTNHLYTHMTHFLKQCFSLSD

B1: VHH9 (VHH)
VHH: QVQLQESGGGLVQSGGSLRLSCVASGSISSINAMGWYRQAPGNKREWVAGITSGGSTNYADAVLGRFSIFRDNPKNTVYLQMNSLKPEDTAVYYCNTWPPSTFGSWGQGTQVTVSS
notes: Anti-FAP VHH, tested before TCO conjugation; also called unconjugated VHH9
B2: VHH6 (VHH)
VHH: DVQLVESGGGLVQAGGSLRLSCAVSGSISSANSMGWYRQAPGKQRDVVAGLTTGGRSHYADSVKGRFTISRDNAKNTVYLQMNSLKAEDTAVYYCNLWPPVQGYWGQGTQVTVSS
notes: Anti-FAP VHH, tested before TCO conjugation; also called unconjugated VHH6
B3: TCO-VHH8 (VHH)
VHH: QVQLQESGGGTVQPGGSLRLSCAASGISVSIASMAWYRQAPGKQRELVAGIISGGSTNYADSVKGRFTISRDNAKKVVLLQMNSLKPEDTAVYYCNTYPPFVGPGATATWGQGTQVTVSS
modifications: trans-cyclooctene (TCO) conjugated via TCO-NHS; site(s) and number not stated
notes: also called TCO conjugated VHH8; VHH8 post conjugation
B4: TCO-VHH9 (VHH)
VHH: QVQLQESGGGLVQSGGSLRLSCVASGSISSINAMGWYRQAPGNKREWVAGITSGGSTNYADAVLGRFSIFRDNPKNTVYLQMNSLKPEDTAVYYCNTWPPSTFGSWGQGTQVTVSS
modifications: trans-cyclooctene (TCO) conjugated via TCO-NHS; site(s) and number not stated
notes: also called TCO conjugated VHH9; VHH9 post conjugation
B5: TCO-VHH1 (VHH)
VHH: DVQLVESGGGLVQPGGSLRLSCVASGRLSSSNSMAWYRQVPGKRRELVAGITGGGETNYADFVGGRFTISRDNAKNGLYLQLNGLKPEDTAAYYCNFWPPLINYWGQGTQVTVSS
modifications: trans-cyclooctene (TCO) conjugated via TCO-NHS; site(s) and number not stated
notes: also called TCO conjugated VHH1; VHH1 post conjugation
B6: TCO-VHH7 (VHH)
VHH: QVQLQESGGGLVQAGGSLRLSCTASGTFSGRNAMAWYRQAPGKRRELVAGIRSDDSTNYVDSVKGRFTISRDNAKNTVYLQMNSLRPEDTAVYYCNLWPPVIGAGFGSWGQGTQVTVSS
modifications: trans-cyclooctene (TCO) conjugated via TCO-NHS; site(s) and number not stated
notes: also called TCO conjugated VHH7; VHH7 post conjugation

The first test addresses T1, human fibroblast activation protein …. As to the kind of experiment: BLI (Octet), kinetics to human FAP, pre TCO conjugation. As to the method: (§1) Using the BLI technology on Octet system the binding kinetics towards human FAP were determined for each of the five VHHs pre- and post-TCO conjugation.
For orientation: Kd means the concentration at which binding is half-saturated. One may read the koff as the rate constant with which the complex falls apart. One may read the kon as a measure of how fast the partners come together. A low value points to slow association. B1 came in with a dissociation constant Kd of 0.453 nM, a koff of 0.0018 s⁻¹ and a kon of 3.98e+06 M⁻¹ s⁻¹.

As for B2, binding was characterised by a dissociation constant (Kd) of 0.0551 nM, the koff was determined as 0.000188 s⁻¹ and the kon came to 3.41e+06 M⁻¹ s⁻¹.

Another test shares this target. Briefly: BLI (Octet), kinetics to human FAP, post TCO conjugation. As to the method: as §1
Turning to B3, binding was characterised by a dissociation constant (Kd) of 0.671 nM, the koff turned out to be 0.000559 s⁻¹ and the kon was found to be 833000 M⁻¹ s⁻¹.

Regarding B4, binding was put at a Kd of 0.951 nM, the koff was 0.0012 s⁻¹ and the kon amounted to 1.26e+06 M⁻¹ s⁻¹.

On to B5, for which binding was characterised by a dissociation constant (Kd) of 0.0719 nM, the koff was found to be 4.99e-05 s⁻¹ and the kon stood at 694000 M⁻¹ s⁻¹.

In turn, B6 displayed a Kd of 0.166 nM, a koff of 0.000123 s⁻¹ and a kon of 746000 M⁻¹ s⁻¹.
